Experiments:
[1] = biological target: T1, Galectin-3 (UniProt P17931 1-250, limits assumed); assay: BLI; after 25 C for 3 months
T1 construct: Target of the anti-Gal3 antibody TB006; also called Gal3; GAL3

[2] = biological target: T1, Galectin-3; assay: BLI; after 25 C for 14 days
[3] = biological target: T1, Galectin-3; assay: ELISA blocking assay; TB006 diluted to 0.31 mg/mL in 0.9% NaCl, 25 C, 0 h; blocked partner not named; Bag #1, 0 h
[4] = biological target: T1, Galectin-3; assay: ELISA (Biological Activity); accelerated stability 25 C/60% RH, 1 month
[5] = biological target: T1, Galectin-3; assay: BLI; after 25 C for 9 months
[6] = biological target: T1, Galectin-3; assay: BLI; after -80 C for 12 months
[7] = biological target: T1, Galectin-3; assay: BLI; after 4 C for 12 months
[8] = biological target: T1, Galectin-3; assay: BLI; after -80 C for 3 months
[9] = biological target: T1, Galectin-3; assay: BLI; after 4 C for 3 months
[10] = biological target: T1, Galectin-3; assay: BLI; after 40 C for 28 days
[11] = biological target: T1, Galectin-3; assay: BLI; after -80 C for 1 month
[12] = biological target: T1, Galectin-3; assay: BLI; after 3 freeze/thaws, 100% vol. of container
[13] = biological target: T1, Galectin-3; assay: BLI; after 3 freeze/thaws, 75% vol. of container
[14] = biological target: T1, Galectin-3; assay: BLI; after 25 C for 6 months
[15] = biological target: T1, Galectin-3; assay: BLI; after -80 C for 18 months
[16] = biological target: T1, Galectin-3; assay: BLI; after agitation (shear stress)
[17] = biological target: T2, Galectin-3 (Gal3) (UniProt P17931 1-250, limits assumed); assay: BLI; 50 mg/mL DS after -80 C for 9 months
T2 construct: Target of TB006
T2 sequence (P17931 whole entry): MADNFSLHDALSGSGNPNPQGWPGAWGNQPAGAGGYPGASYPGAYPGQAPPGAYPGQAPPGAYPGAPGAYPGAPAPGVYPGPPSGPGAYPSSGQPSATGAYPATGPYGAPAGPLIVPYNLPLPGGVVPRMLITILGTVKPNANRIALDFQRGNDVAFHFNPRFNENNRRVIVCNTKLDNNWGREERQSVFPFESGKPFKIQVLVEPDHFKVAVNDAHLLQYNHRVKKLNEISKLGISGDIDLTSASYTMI

[18] = biological target: T2, Galectin-3 (Gal3); assay: BLI; 20 mg/mL DS after 40 C for 7 days
[19] = biological target: T2, Galectin-3 (Gal3); assay: BLI; 20 mg/mL DS after -80 C for 18 months
How it was run: (§1)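 Each sample was taken either at time zero or after a stress step: shear from agitation, repeated freeze-thaw cycles, or storage at set temperatures, among them 40° C and cryogenic storage. The dissociation constant (Kd) for Galectin-3 binding came from biolayer interferometry.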

[20] = biological target: T2, Galectin-3 (Gal3); assay: BLI; 20 mg/mL DS after -80 C for 9 months
[21] = biological target: T2, Galectin-3 (Gal3); assay: BLI; 20 mg/mL DS after -80 C for 3 months
[22] = biological target: T2, Galectin-3 (Gal3); assay: BLI; 50 mg/mL DS after 40 C for 3 months
[23] = biological target: T2, Galectin-3 (Gal3); assay: BLI; 50 mg/mL DS after 3 freeze/thaws
[24] = biological target: T2, Galectin-3 (Gal3); assay: BLI; 20 mg/mL DS after 25 C for 14 days
How it was run: as §1

[25] = biological target: T2, Galectin-3 (Gal3); assay: BLI; 20 mg/mL DS after 40 C for 21 days
How it was run: as §1

[26] = biological target: T2, Galectin-3 (Gal3); assay: BLI; 50 mg/mL DS after 25 C for 1 month
[27] = biological target: T2, Galectin-3 (Gal3); assay: BLI; 20 mg/mL DS after 40 C for 14 days
[28] = biological target: T2, Galectin-3 (Gal3); assay: BLI; 50 mg/mL DS after 4 C for 9 months
[29] = biological target: T2, Galectin-3 (Gal3); assay: BLI; 20 mg/mL DS after 25 C for 9 months
[30] = biological target: T2, Galectin-3 (Gal3); assay: BLI; 50 mg/mL DS after 25 C for 3 months
[31] = biological target: T2, Galectin-3 (Gal3); assay: BLI; 50 mg/mL DS after 5 freeze/thaws
[32] = biological target: T2, Galectin-3 (Gal3); assay: BLI; 50 mg/mL DS after 4 C for 3 months
[33] = biological target: T2, Galectin-3 (Gal3); assay: BLI; 50 mg/mL DS after 40 C for 14 days

T1 sequence (P17931 whole entry): as above

B1: TB006 (antibody, human IgG4 S228P, kappa, V domains shown)
VH: QVQLVQSGAEVKKPGASVKVSCKASGYSFTNYYMHWVRQAPGQRLEWMGWIYPGSGNTNYNEKFQGRVTITADTSASTAYMELSSLRSEDTAVYYCSTAPGGFDVWGQGTTVTVSS
VL: DIVMTQTPLSLSVTPGQPASISCKSSKSLLHSDGITYLYWYLQKPGQSPQLLIYRMSNLASGVPDRFSGSGSGTDFTLKISRVEAEDVGVYYCAQMLEFPLTFGQGTKLEIKR
notes: Tested as formulated drug substance or drug product in 20 mM L-histidine, 5 mM methionine, 100 mM NaCl, 0.02% polysorbate 80, pH 5.8, or diluted in 0.9% saline; also called 4A11.H3L1; IMT006a
- Kd [1]: 3.3 nM
- Kd [2]: 2.6 nM
- IC50 [3]: 1.01 µg/mL
- IC50 [4]: 1.8 µg/mL
- Kd [5]: 2.8 nM
- Kd [6]: 3 nM
- Kd [7]: 3.9 nM
- Kd [8]: 3.3 nM
- Kd [9]: 3.3 nM
- Kd [10]: 3.1 nM
- Kd [11]: 3.2 nM
- Kd [12]: 2.7 nM
- Kd [13]: 2.6 nM
- Kd [14]: 2.6 nM
- Kd [15]: 2 nM
- Kd [16]: 2.8 nM

B2: TB006 (antibody, human IgG4 S228P, kappa, V domains shown)
VH: QVQLVQSGAEVKKPGASVKVSCKASGYSFTNYYMHWVRQAPGQRLEWMGWIYPGSGNTNYNEKFQGRVTITADTSASTAYMELSSLRSEDTAVYYCSTAPGGFDVWGQGTTVTVSS
VL: DIVMTQTPLSLSVTPGQPASISCKSSKSLLHSDGITYLYWYLQKPGQSPQLLIYRMSNLASGVPDRFSGSGSGTDFTLKISRVEAEDVGVYYCAQMLEFPLTFGQGTKLEIKR
notes: Full antibody tested as drug substance (DS) in 20 mM L-histidine, 5 mM methionine, 100 mM NaCl, 0.02% polysorbate-80, pH 5.8; also called 4A11.H3L1; IMT006a
- Kd [17]: 2.8 nM
- Kd [18]: 2.9 nM
- Kd [19]: 4.2 nM
- Kd [20]: 1.7 nM
- Kd [21]: 3.5 nM
- Kd [22]: 3.1 nM
- Kd [23]: 3.9 nM
- Kd [24]: 2.7 nM
- Kd [25]: 2.6 nM
- Kd [26]: 2.2 nM
- Kd [27]: 2.9 nM
- Kd [28]: 2.8 nM
- Kd [29]: 2.1 nM
- Kd [30]: 2.5 nM
- Kd [31]: 2.6 nM
- Kd [32]: 2.3 nM
- Kd [33]: 2.7 nM

Reference: patent US20240158512A1 (TRUEBINDING, published 2024)
